In publication PMC4434323:

Assays:
[1] = molecular target: lin-48 (F34D10.5) (Caenorhabditis elegans) (UniProt G5EDU6)
[2] = molecular target: T1, F13H6.1 (F13H6.1) (Caenorhabditis elegans) (UniProt H2KZR6)
T1 sequence: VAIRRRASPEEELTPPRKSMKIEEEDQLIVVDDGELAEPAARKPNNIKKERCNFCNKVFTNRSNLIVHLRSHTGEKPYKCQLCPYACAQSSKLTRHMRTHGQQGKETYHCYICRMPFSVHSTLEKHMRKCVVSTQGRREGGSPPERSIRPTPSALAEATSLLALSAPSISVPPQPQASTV

[3] = molecular target: T2, F10B5.3 (F10B5.3) (Caenorhabditis elegans) (UniProt Q09534)
T2 sequence: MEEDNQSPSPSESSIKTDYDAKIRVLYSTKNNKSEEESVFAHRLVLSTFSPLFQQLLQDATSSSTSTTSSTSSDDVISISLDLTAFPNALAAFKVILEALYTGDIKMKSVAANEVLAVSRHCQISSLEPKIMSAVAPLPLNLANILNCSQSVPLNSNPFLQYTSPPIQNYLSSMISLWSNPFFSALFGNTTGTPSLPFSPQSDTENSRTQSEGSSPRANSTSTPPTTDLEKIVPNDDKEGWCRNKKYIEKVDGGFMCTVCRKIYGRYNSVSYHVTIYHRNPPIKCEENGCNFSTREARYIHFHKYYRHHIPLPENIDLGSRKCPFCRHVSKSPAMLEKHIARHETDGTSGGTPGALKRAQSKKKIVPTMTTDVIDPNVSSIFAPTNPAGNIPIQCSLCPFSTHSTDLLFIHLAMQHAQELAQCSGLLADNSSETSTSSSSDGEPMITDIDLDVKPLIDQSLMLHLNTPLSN

[4] = molecular target: T3, nhr-204 (R02C2.4) (Caenorhabditis elegans) (UniProt O44543)
T3 sequence: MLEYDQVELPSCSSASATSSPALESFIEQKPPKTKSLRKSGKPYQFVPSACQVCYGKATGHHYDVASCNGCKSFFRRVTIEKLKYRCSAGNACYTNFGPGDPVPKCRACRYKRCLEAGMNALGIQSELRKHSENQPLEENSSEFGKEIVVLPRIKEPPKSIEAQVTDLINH

Chain of lin-48 (F34D10.5) (Caenorhabditis elegans) (G5EDU6 83-280): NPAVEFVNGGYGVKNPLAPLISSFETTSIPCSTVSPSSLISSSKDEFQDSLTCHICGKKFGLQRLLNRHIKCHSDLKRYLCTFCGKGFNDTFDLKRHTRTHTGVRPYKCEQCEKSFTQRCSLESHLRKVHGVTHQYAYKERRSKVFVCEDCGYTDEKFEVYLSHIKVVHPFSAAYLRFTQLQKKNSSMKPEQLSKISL

Sequence	binding signal (PBM E-score (-0.5 to 0.5)) [1]	binding signal (PBM E-score (-0.5 to 0.5)) [2]	binding signal (PBM E-score (-0.5 to 0.5)) [3]	further results
CCGTTATC (double strand) [8-mer CCGTTATC]	0.49			
CCGTTACA (double strand) [8-mer CCGTTACA]	0.486			
ACTGGTCA (double strand) [8-mer ACTGGTCA]		0.495		
GTAACGGA (double strand) [8-mer GTAACGGA]	0.485			
AGTAACGG (double strand) [8-mer AGTAACGG]	0.487			
AATGACCA (double strand) [8-mer AATGACCA]		0.496		
CCTCGAAA (double strand) [8-mer CCTCGAAA]			0.474	
ACCGTTAT (double strand) [8-mer ACCGTTAT]	0.493			
GTTGACCA (double strand) [8-mer GTTGACCA]		0.494		
GTGGTCAA (double strand) [8-mer GTGGTCAA]		0.496		
TCCTCGAA (double strand) [8-mer TCCTCGAA]			0.481	
TAACGGTA (double strand) [8-mer TAACGGTA]	0.494			
AATGGTCA (double strand) [8-mer AATGGTCA]		0.495		
ATAACGGA (double strand) [8-mer ATAACGGA]	0.485			
CTGACCAC (double strand) [8-mer CTGACCAC]		0.495		
TTCCGGAA (double strand) [8-mer TTCCGGAA]			0.49	
ATAACGGG (double strand) [8-mer ATAACGGG]	0.494			
GAGTGACC (double strand) [8-mer GAGTGACC]		0.496		
GACCGTTA (double strand) [8-mer GACCGTTA]	0.496			
TCTGGAAA (double strand) [8-mer TCTGGAAA]			0.487	

Sequence	binding signal (PBM E-score (-0.5 to 0.5)) [1]	binding signal (PBM E-score (-0.5 to 0.5)) [2]	binding signal (PBM E-score (-0.5 to 0.5)) [3]	further results
AGTGACCA (double strand) [8-mer AGTGACCA]		0.498		
CCGTTATA (double strand) [8-mer CCGTTATA]	0.494			
CTGGAAAA (double strand) [8-mer CTGGAAAA]			0.475	
GTCCGTTA (double strand) [8-mer GTCCGTTA]	0.487			
ATTGGTCA (double strand) [8-mer ATTGGTCA]		0.495		binding signal (PBM E-score (-0.5 to 0.5)) [4]: 0.477
CCTGGAAA (double strand) [8-mer CCTGGAAA]			0.48	
GGTGGTCA (double strand) [8-mer GGTGGTCA]		0.494		
GATGACCA (double strand) [8-mer GATGACCA]		0.494		
GTTCCAGA (double strand) [8-mer GTTCCAGA]			0.473	
ACCGTTAG (double strand) [8-mer ACCGTTAG]	0.489			
TCGTGGAA (double strand) [8-mer TCGTGGAA]			0.483	
CTTGACCA (double strand) [8-mer CTTGACCA]		0.496		
TCCACGAA (double strand) [8-mer TCCACGAA]			0.476	
TCCTGGAA (double strand) [8-mer TCCTGGAA]			0.491	
TACACGAA (double strand) [8-mer TACACGAA]			0.476	
AGTGGTCA (double strand) [8-mer AGTGGTCA]		0.497		
AAGTGACC (double strand) [8-mer AAGTGACC]		0.494		
TTCGAGAA (double strand) [8-mer TTCGAGAA]			0.477	
ATTTCCAG (double strand) [8-mer ATTTCCAG]			0.473	
ACTGACCA (double strand) [8-mer ACTGACCA]		0.497		
